Assay results reported in PMC10110401, “HuR modulation counteracts lipopolysaccharide response in murine macrophages”.

Target: HuR M1M2 (rM1M2_HuR) (UniProt Q15717 20-186)
Assay: HTRF; 20 nM protein, 50 nM probe; hook point titration 0-500 nM protein; TM7nox inhibits with IC50 0.7956 uM (small-molecule value); REMSA: 3.7 nM (or 100 nM) protein, 1 nM probe, 30 min, 4% native PAGE, buffer not given; HTRF: 20 nM protein, 50 nM probe, buffer not given; pull-down: lysis in 20 mM Tris-HCl pH 7.5, 100 mM KCl, 5 mM MgCl2, 0.5% NP-40, probe 0.5 uM in TENT (20 mM Tris-HCl pH 8.0, 2 mM EDTA, 500 mM …)
Settings: protein: recombinant; tags: His-tag; label: biotin; single strand

HuR M1M2 (rM1M2_HuR), sequence (Q15717 20-186): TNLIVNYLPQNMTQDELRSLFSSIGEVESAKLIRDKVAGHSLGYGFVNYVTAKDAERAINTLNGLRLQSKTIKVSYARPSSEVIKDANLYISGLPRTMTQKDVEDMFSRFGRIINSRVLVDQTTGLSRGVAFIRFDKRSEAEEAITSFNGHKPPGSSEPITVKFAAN

AUUAUUUAUUAUUUAUUUAUUAUUUA (ssRNA, 5'-biotin) [Bi-TNF ARE probe]: binds.
